Results on 18 molecules are retold here after patent EP4729546A1 (Jiangsu BioJeTay Biotechnology Co., Ltd., dated 2026).

The target of assay [1] is huFXII-his (human) (UniProt P00748). The experiment in a line: cell-based or functional assay.
Assay [2] shares this target. The experiment in a line: ELISA, huFXII-his coated at 1 µg/ml, HRP anti-human secondary, OD450.
Assay [3] addresses T1, huFXII-his (human, UniProt P00748 20-615).
T1 sequence (looked up): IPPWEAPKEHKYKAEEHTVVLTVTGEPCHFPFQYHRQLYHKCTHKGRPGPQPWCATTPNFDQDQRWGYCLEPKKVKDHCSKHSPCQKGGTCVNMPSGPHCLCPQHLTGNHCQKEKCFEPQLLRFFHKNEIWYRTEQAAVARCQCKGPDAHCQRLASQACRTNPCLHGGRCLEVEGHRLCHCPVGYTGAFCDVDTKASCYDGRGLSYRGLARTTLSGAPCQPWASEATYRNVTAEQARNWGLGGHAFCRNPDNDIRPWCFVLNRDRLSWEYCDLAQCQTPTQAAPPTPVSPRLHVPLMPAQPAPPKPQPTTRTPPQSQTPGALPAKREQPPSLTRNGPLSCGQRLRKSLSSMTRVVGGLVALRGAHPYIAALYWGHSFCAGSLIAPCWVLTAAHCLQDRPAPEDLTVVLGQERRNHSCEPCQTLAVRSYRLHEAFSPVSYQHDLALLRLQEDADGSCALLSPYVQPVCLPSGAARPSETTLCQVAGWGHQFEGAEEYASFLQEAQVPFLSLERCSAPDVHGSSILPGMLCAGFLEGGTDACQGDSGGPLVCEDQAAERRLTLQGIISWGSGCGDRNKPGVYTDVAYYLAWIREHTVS
The experiment in a line: cell-based or functional assay.

B1: FX-Y17-Y19 (antibody, V domains shown)
VH: EVQLLESGGGLVQPGGSLRLSCAGSGFSFGSQTMSWVRQAPGKGLEWVSSISVISKRTYYADSVKGRFTISRDNSKNTLYLQMNSLRAEDTAVYYCTRSHAFDVWGQGTMVTVSS
VL: EIVLTQSPATLSVSPGERATLSCRASQSVYSALAWYQQKPGQAPRLLIYGASTRATGIPARFSGSGSGTEFTLTISSLQSEDFAVYYCQQYHKWPLSFGGGTKVEIK
In general, EC50 refers to the midpoint of the concentration-response curve. A high value points to a need for much substance. On to B1, for which the IC50 of inhibition of cleavage of chemical substrate S2302 by FXIIa (OD405) in assay [1] is 0.0214 µg/mL. The same molecule yielded a half-maximal effective concentration (EC50) in assay [2] of 0.149 µg/mL.

B2: FX-Y17-Y21 (antibody, V domains shown)
VH: EVQLLESGGGLVQPGGSLRLSCAGSGFSFGSQTMSWVRQAPGKGLEWVSSISHISGRTYYADSVKGRFTISRDNSKNTLYLQMNSLRAEDTAVYYCAKSHAFDVWGQGTMVTVSS
VL: EIVLTQSPATLSVSPGERATLSCRASQSVYSALAWYQQKPGQAPRLLIYGASTRATGIPARFSGSGSGTEFTLTISSLQSEDFAVYYCQQNNKWPLSFGGGTKVEIK
Take B2: the IC50 of inhibition of cleavage of chemical substrate S2302 by FXIIa (OD405) in assay [1] stood at 0.0132 µg/mL. The same molecule showed an EC50 in assay [2] of 0.101 µg/mL.

B3: FX-Y17-Y47 (antibody, V domains shown)
VH: EVQLLESGGGLVQPGGSLRLSCAGSGFSFGSQTMSWVRQAPGKGLEWVSSISVISGRDYYADSVKGRFTISRDNSKNTLYLQMNSLRAEDTAVYYCTRSHAFDVWGQGTMVTVSS
VL: EIVLTQSPATLSVSPGERATLSCRASQSVYSALAWYQQKPGQAPRLLIYGASTRATGIPARFSGSGSGTEFTLTISSLQSEDFAVYYCQQYHKWPLSFGGGTKVEIK
On to B3, for which the “IC50 of inhibition of cleavage of chemical substrate S2302 by FXIIa (OD405)” value (shortened to “IC50 of inhibition of cleavage … (OD405)”) in assay [3] came to 0.0179 µg/mL.

B4: FX-Y17-Y28 (antibody, V domains shown)
VH: EVQLLESGGGLVQPGGSLRLSCAGSGFSFGSQTMSWVRQAPGKGLEWVSSISVISGRTYYADSVKGRFTISRDNSKNTLYLQMNSLRAEDTAVYYCTKQHAFDVWGQGTMVTVSS
VL: EIVLTQSPATLSVSPGERATLSCRASQSVYSALAWYQQKPGQAPRLLIYGASTRATGIPARFSGSGSGTEFTLTISSLQSEDFAVYYCQQYHKWPLSFGGGTKVEIK
On to B4, for which the “IC50 of inhibition of cleavage … (OD405)” value in assay [3] turned out to be 0.0267 µg/mL.

B5: FX-Y17-Y43 (antibody, V domains shown)
VH: EVQLLESGGGLVQPGGSLRLSCAGSGFSFGSQTMSWVRQAPGKGLEWVSSSSVISGRTYYADSVKGRFTISRDNSKNTLYLQMNSLRAEDTAVYYCTRSHAFDVWGQGTMVTVSS
VL: EIVLTQSPATLSVSPGERATLSCRASQSVYSALAWYQQKPGQAPRLLIYGASTRATGIPARFSGSGSGTEFTLTISSLQSEDFAVYYCQQYHKWPLSFGGGTKVEIK
B5: in assay [3], the “IC50 of inhibition of cleavage … (OD405)” value turned out to be 0.0146 µg/mL.

B6: FX-Y17-Y48 (antibody, V domains shown)
VH: EVQLLESGGGLVQPGGSLRLSCAGSGFSFGSQTMSWVRQAPGKGLEWVSSISVISGRAYYADSVKGRFTISRDNSKNTLYLQMNSLRAEDTAVYYCTRSHAFDVWGQGTMVTVSS
VL: EIVLTQSPATLSVSPGERATLSCRASQSVYSALAWYQQKPGQAPRLLIYGASTRATGIPARFSGSGSGTEFTLTISSLQSEDFAVYYCQQYHKWPLSFGGGTKVEIK
Regarding B6, the “IC50 of inhibition of cleavage … (OD405)” value in assay [3] turned out to be 0.0141 µg/mL.

B7: FX-Y17-Y42 (antibody, V domains shown)
VH: EVQLLESGGGLVQPGGSLRLSCAGSGFSLGSQTMSWVRQAPGKGLEWVSSISVISGRMYYADSVKGRFTISRDNSKNTLYLQMNSLRAEDTAVYYCTKSHAFDVWGQGTMVTVSS
VL: EIVLTQSPATLSVSPGERATLSCRASQSVYSALAWYQQKPGQAPRLLIYGASTRATGIPARFSGSGSGTEFTLTISSLQSEDFAVYYCQQYHKWPLSFGGGTKVEIK
Turning to B7, the “IC50 of inhibition of cleavage … (OD405)” value in assay [3] is 0.0177 µg/mL.

B8: FX-Y17-Y39 (antibody, V domains shown)
VH: EVQLLESGGGLVQPGGSLRLSCAGSGFSFGSQTMSWVRQAPGKGLEWVSSISHISGRTYYADSVKGRFTISRDNSKNTLYLQMNSLRAEDTAVYYCTKSHDFDVWGQGTMVTVSS
VL: EIVLTQSPATLSVSPGERATLSCRASQSVYSALAWYQQKPGQAPRLLIYGASTRATGIPARFSGSGSGTEFTLTISSLQSEDFAVYYCQQNNKWPLSFGGGTKVEIK
For B8, the “IC50 of inhibition of cleavage … (OD405)” value in assay [3] came out at 0.0422 µg/mL.

B9: FX-Y17-Y33 (antibody, V domains shown)
VH: EVQLLESGGGLVQPGGSLRLSCAGSGFSFGSQTMSWVRQAPGKGLEWVSSISVISGRKYYADSVKGRFTISRDNSKNTLYLQMNSLRAEDTAVYYCTKSHAFDVWGQGTMVTVSS
VL: EIVLTQSPATLSVSPGERATLSCRASQSVYSALAWYQQKPGQAPRLLIYGASTRATGIPARFSGSGSGTEFTLTISSLQSEDFAVYYCQQYHKWPLSFGGGTKVEIK
Turning to B9, in assay [3], the “IC50 of inhibition of cleavage … (OD405)” value came out at 0.022 µg/mL.

B10: FX-Y17-Y41 (antibody, V domains shown)
VH: EVQLLESGGGLVQPGGSLRLSCAGSGFSFGSQTMSWVRQAPGKGLEWVSSISVISGRRYYADSVKGRFTISRDNSKNTLYLQMNSLRAEDTAVYYCAKSHAFDVWGQGTMVTVSS
VL: EIVLTQSPATLSVSPGERATLSCRASQSVYSALAWYQQKPGQAPRLLIYGASTRATGIPARFSGSGSGTEFTLTISSLQSEDFAVYYCQQYHKWPLSFGGGTKVEIK
As for B10, the “IC50 of inhibition of cleavage … (OD405)” value in assay [3] is 0.019 µg/mL.

B11: FX-Y17-Y35 (antibody, V domains shown)
VH: EVQLLESGGGLVQPGGSLRLSCAGSGFSFGSQTMSWVRQAPGKGLEWVSSISVISGRDYYADSVKGRFTISRDNSKNTLYLQMNSLRAEDTAVYYCAKSHAFDVWGQGTMVTVSS
VL: EIVLTQSPATLSVSPGERATLSCRASQSVYSALAWYQQKPGQAPRLLIYGASTRATGIPARFSGSGSGTEFTLTISSLQSEDFAVYYCQQYHKWPLSFGGGTKVEIK
As for B11, the “IC50 of inhibition of cleavage … (OD405)” value in assay [3] was 0.0139 µg/mL.

B12: FX-Y17-Y22 (antibody, V domains shown)
VH: EVQLLESGGGLVQPGGSLRLSCAGSGFSFGSQTMSWVRQAPGKGLEWVSSISYISGRTYYADSVKGRFTISRDNSKNTLYLQMNSLRAEDTAVYYCTRSHAFDVWGQGTMVTVSS
VL: EIVLTQSPATLSVSPGERATLSCRASQSVWSNLAWYQQKPGQAPRLLIYGASTRATGIPARFSGSGSGTEFTLTISSLQSEDFAVYYCQQYHKWPLSFGGGTKVEIK
B12 displayed an IC50 of inhibition of cleavage of chemical substrate S2302 by FXIIa (OD405) in assay [1] of 0.0202 µg/mL. The EC50 in assay [2] worked out at 0.187 µg/mL.

B13: FX-Y17-Y1 (antibody, V domains shown)
VH: EVQLLESGGGLVQPGGSLRLSCAGSGFSFGSQTMSWVRQAPGKGLEWVSSISVISRRTYYADSVKGRFTISRDNSKNTLYLQMNSLRAEDTAVYYCTKSHAFDVWGQGTMVTVSS
VL: EIVLTQSPATLSVSPGERATLSCRASQSVYSALAWYQQKPGQAPRLLIYGASTRATGIPARFSGSGSGTEFTLTISSLQSEDFAVYYCQQYHKWPLSFGGGTKVEIK
On to B13, for which the IC50 of inhibition of cleavage of chemical substrate S2302 by FXIIa (OD405) in assay [1] was determined as 0.0237 µg/mL. In addition, the EC50 in assay [2] is 0.151 µg/mL.

B14: FX-Y17-Y38 (antibody, V domains shown)
VH: EVQLLESGGGLVQPGGSLRLSCAGSGFSFGSQTMSWVRQAPGKGLEWVSSISVISRRTYYADSVKGRFTISRDNSKNTLYLQMNSLRAEDTAVYYCAKSHAFDVWGQGTMVTVSS
VL: EIVLTQSPATLSVSPGERATLSCRASQSVYSALAWYQQKPGQAPRLLIYGASTRATGIPARFSGSGSGTEFTLTISSLQSEDFAVYYCQQYHKWPLSFGGGTKVEIK
B14: the “IC50 of inhibition of cleavage … (OD405)” value in assay [3] was 0.016 µg/mL.

B15: FX-Y17-Y23 (antibody, V domains shown)
VH: EVQLLESGGGLVQPGGSLRLSCAGSGFSFGSQTMSWVRQAPGKGLEWVSSISVISGRSYYADSVKGRFTISRDNSKNTLYLQMNSLRAEDTAVYYCTRSHAFDVWGQGTMVTVSS
VL: EIVLTQSPATLSVSPGERATLSCRASQSVWSNLAWYQQKPGQAPRLLIYGASTRATGIPARFSGSGSGTEFTLTISSLQSEDFAVYYCQQYHKWPLSFGGGTKVEIK
Molecule B15 had an IC50 of inhibition of cleavage of chemical substrate S2302 by FXIIa (OD405) in assay [1] of 0.0129 µg/mL. In assay [2], the EC50 was found to be 0.0942 µg/mL.

B16: FX-Y17-Y6 (antibody, V domains shown)
VH: EVQLLESGGGLVQPGGSLRLSCAGSGFSFGSQTMSWVRQAPGKGLEWVSSISYISGRTYYADSVKGRFTISRDNSKNTLYLQMNSLRAEDTAVYYCTKSHAFDVWGQGTMVTVSS
VL: EIVLTQSPATLSVSPGERATLSCRASQSVYSALAWYQQKPGQAPRLLIYGASTRATGIPARFSGSGSGTEFTLTISSLQSEDFAVYYCQQYHKWPLSFGGGTKVEIK
As to B16, the “IC50 of inhibition of cleavage … (OD405)” value in assay [3] came to 0.0157 µg/mL.

B17: FX-Y17-Y36 (antibody, V domains shown)
VH: EVQLLESGGGLVQPGGSLRLSCAGSGFSFGSQTMSWVRQAPGKGLEWVSSISVISKRTYYADSVKGRFTISRDNSKNTLYLQMNSLRAEDTAVYYCTKSHAFDVWGQGTMVTVSS
VL: EIVLTQSPATLSVSPGERATLSCRASQSVYSALAWYQQKPGQAPRLLIYGASTRATGIPARFSGSGSGTEFTLTISSLQSEDFAVYYCQQYHKWPLSFGGGTKVEIK
As for B17, the “IC50 of inhibition of cleavage … (OD405)” value in assay [3] worked out at 0.0155 µg/mL.

B18: FX-Y17-Y20 (antibody, V domains shown)
VH: EVQLLESGGGLVQPGGSLRLSCAGSGFSFGSQTMSWVRQAPGKGLEWVSSISVISGRSYYADSVKGRFTISRDNSKNTLYLQMNSLRAEDTAVYYCTKSHAFDVWGQGTMVTVSS
VL: EIVLTQSPATLSVSPGERATLSCRASQSVYSALAWYQQKPGQAPRLLIYGASTRATGIPARFSGSGSGTEFTLTISSLQSEDFAVYYCQQYHKWPLSFGGGTKVEIK
In turn, B18 displayed an IC50 of inhibition of cleavage of chemical substrate S2302 by FXIIa (OD405) in assay [1] of 0.0187 µg/mL. This molecule also displayed an EC50 in assay [2] of 0.127 µg/mL.
